Measured values as given in paper PMC11719849, “Allosteric modulation of the Lon protease via ssDNA binding and local charge changes”.

T1: Lon (wild type) (Caulobacter crescentus, UniProt P0CAW0 1-799)
T1 sequence: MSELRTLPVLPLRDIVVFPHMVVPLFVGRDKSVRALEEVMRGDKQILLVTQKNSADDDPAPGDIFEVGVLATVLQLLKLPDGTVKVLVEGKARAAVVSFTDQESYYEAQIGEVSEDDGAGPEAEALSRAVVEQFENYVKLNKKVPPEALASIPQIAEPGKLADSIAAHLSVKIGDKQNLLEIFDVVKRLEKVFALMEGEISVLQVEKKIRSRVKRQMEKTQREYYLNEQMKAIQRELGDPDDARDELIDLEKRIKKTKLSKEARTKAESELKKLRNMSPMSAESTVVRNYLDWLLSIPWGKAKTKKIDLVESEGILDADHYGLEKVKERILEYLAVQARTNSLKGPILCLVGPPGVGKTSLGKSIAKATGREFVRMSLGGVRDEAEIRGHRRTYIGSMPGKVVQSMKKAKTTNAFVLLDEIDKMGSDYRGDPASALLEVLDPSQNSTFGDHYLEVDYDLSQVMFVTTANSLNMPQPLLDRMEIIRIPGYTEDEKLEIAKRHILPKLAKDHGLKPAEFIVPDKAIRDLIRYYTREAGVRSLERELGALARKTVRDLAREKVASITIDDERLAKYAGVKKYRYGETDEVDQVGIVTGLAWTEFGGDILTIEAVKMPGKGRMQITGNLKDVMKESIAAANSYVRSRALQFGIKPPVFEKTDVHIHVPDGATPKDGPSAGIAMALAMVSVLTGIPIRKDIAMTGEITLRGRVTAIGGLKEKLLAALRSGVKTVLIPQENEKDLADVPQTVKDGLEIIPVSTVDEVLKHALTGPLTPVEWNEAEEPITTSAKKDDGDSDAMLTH

T2: Lon4E (Caulobacter crescentus, UniProt P0CAW0 1-799, K301E;K303E;K305E;K306E)
T2 sequence: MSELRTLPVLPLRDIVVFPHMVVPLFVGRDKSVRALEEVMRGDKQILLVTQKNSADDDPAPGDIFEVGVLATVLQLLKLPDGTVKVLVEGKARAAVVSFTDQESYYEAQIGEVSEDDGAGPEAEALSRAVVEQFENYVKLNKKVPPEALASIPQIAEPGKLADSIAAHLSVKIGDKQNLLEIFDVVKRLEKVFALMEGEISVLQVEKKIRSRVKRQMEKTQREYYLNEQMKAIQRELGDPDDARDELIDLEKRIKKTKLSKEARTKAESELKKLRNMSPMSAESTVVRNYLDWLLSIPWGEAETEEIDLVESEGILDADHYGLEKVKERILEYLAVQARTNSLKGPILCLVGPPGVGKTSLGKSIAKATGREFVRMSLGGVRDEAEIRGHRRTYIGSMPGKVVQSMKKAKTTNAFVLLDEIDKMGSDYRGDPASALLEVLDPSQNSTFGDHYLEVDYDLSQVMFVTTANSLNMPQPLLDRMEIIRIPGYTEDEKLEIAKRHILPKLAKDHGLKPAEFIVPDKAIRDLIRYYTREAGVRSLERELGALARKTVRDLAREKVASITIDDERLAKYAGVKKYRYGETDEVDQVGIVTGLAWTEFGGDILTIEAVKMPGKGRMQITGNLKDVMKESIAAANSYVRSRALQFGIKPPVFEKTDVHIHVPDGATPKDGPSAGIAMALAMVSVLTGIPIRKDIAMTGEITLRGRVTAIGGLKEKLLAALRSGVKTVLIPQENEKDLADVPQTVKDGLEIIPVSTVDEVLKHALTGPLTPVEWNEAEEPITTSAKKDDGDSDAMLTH

T3: Lon4A (Caulobacter crescentus, UniProt P0CAW0 1-799, K301A;K303A;K305A;K306A)
T3 sequence: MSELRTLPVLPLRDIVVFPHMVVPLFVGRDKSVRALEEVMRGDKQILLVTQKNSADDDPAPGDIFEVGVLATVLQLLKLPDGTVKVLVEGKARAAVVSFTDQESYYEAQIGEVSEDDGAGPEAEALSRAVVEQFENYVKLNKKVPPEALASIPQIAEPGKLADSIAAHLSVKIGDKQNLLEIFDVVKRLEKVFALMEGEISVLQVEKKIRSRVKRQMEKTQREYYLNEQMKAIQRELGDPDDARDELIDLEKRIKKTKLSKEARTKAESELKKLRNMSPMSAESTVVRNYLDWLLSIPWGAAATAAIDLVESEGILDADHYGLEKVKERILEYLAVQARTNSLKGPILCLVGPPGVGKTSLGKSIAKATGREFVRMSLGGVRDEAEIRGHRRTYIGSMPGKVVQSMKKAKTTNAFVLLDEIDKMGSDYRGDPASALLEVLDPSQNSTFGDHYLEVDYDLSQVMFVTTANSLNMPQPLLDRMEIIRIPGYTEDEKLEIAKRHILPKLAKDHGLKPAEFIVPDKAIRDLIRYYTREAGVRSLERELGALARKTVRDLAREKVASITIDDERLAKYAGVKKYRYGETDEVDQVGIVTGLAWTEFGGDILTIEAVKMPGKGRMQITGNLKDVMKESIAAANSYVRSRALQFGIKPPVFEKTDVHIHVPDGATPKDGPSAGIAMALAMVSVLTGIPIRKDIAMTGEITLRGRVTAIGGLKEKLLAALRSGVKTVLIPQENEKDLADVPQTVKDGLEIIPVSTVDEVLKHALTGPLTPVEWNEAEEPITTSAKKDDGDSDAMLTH


Legend:
Lon (wild type) = molecular target: T1, Lon (wild type); assay: mass photometry; 200 nM Lon monomer; shift to HMW, median 592 kDa vs 515 kDa, consistent with one ssDNA per protomer; FP: 25 mM HEPES pH 7.5, 10 mM MgCl2, 100 mM KCl, 0.05% Tween-20, 30 C, 0.1 uM Lon (hexamer), 25 nM DNA; mass photometry in TK buffer, 200 nM Lon; settings: protein: recombinant; chain copies: 6
Lon4E = molecular target: T2, Lon4E; assay: fluorescence polarization; 0.1 uM Lon4E, 25 nM FAM-ssDNA; FP: 25 mM HEPES pH 7.5, 10 mM MgCl2, 100 mM KCl, 0.05% Tween-20, 30 C, 0.1 uM Lon (hexamer), 25 nM DNA; mass photometry in TK buffer, 200 nM Lon; settings: protein: recombinant; chain copies: 6; label: FAM (printed at 5' side)
Lon4A = molecular target: T3, Lon4A; assay: fluorescence polarization; 0.1 uM Lon4A, 25 nM FAM-ssDNA; FP: 25 mM HEPES pH 7.5, 10 mM MgCl2, 100 mM KCl, 0.05% Tween-20, 30 C, 0.1 uM Lon (hexamer), 25 nM DNA; mass photometry in TK buffer, 200 nM Lon; settings: protein: recombinant; chain copies: 6; label: FAM (printed at 5' side)

Binder | binding result (Lon (wild type)) | binding result (Lon4E) | binding result (Lon4A)
TCGATTCTCGAGTTAGTCGTCTTCTGGTGCCGGAAA (ssDNA) [OPC698-Stim] | binds | – | –
AACGGATGATCCACAGGAGAGTCTGGCGCAGGGCGAGAG (ssDNA) [FAM-ssDNA (G1Box top strand)] | – | no binding | no binding
